Patent publication EP3199551
Like-named read-outs stand apart in the source and are kept apart here.

B1: hu Mab8D5 (IgG4 S228P) (antibody, V domains shown)
VH: EVQLVESGGGLVQPGGSLRLSCAASGFTISSYDMHWVRQATGKGLEWVSVIGPAGDTYYPGSVKGRFTISRENAKNSLYLQMNSLRAGDTAVYYCAREGMAAHNYYGMDVWGQGTTVTVSS
VL: not shown
B2: hu Mab8D5 G1 (IgG1) (antibody, V domains shown)
VH: B1 VH
VL: not shown

How the values were obtained:
human BTLA [1] = target: T1, human BTLA (human, UniProt Q7Z6A9); assay: SPR
human BTLA [2] = target: T1, human BTLA; assay: SPR; remark: listed apart in the source
human BTLA [3] = target: T1, human BTLA; assay: FACS, 4C

T1 sequence (Q7Z6A9 31-157): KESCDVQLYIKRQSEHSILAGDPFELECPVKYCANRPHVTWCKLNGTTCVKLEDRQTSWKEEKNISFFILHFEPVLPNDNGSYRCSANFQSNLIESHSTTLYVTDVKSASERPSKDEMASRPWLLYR

| Binder | Kd (human BTLA [1]) [nM] | Kd (human BTLA [2]) [nM] | EC50 (human BTLA [3]) [nM] |
| --- | --- | --- | --- |
| B1 | 2.99 | 2.4 | ~12 |
| B2 |  |  | ~12 |
